First the molecules themselves.
B1: full-length recombinant S1 with the Arg->Lys mutation at residue 9 (protein)
chain: DDPPATVYKYDSRPPEDVFQNGFTAWGNNDNVLDHLTGRSCQVGSSNSAFVSTSSSRRYTEVYLEHRMQEAVEAERAGRGTGHFIGYIYEVRADNNFYGAASSYFEYVDTYGDNAGRILAGALATYQSEYLAHRRIPPENIRRVTRVYHNGITGETTTTEYSNARYVSQHTRANPNPYTSRRSVASIVGTLVRMAPVIGACMARQAESSEAMAAWSERAGEAMVLVYYESIAYS
B2: S1 mutant 4-1 (Arg9->Lys in S1/6A) (protein)
chain: B1 chain with D1M, D2V
B3: S1 mutant 3-1 (Asp11->Glu in S1/6A) (protein)
chain: B1 chain with D1M, D2V, K9R, D11E
B4: S1 mutant 8-1 (Tyr8->Leu, Arg9->Glu in S1/6A) (protein)
chain: B1 chain with D1M, D2V, Y8L, K9E
B5: S1 mutant 1-1 (Arg13->Lys in S1/6A) (protein)
chain: B1 chain with D1M, D2V, K9R, R13K
B6: S1/6A (recombinant pertussis toxin S1 analog, parent construction 6A) (protein)
chain: B1 chain with D1M, D2V, K9R
B7: S1 mutant 2-2 (Ser12->Gly in S1/6A) (protein)
chain: B1 chain with D1M, D2V, K9R, S12G
B8: S1 mutant 6-1 (Asp11->Pro, Pro14->Asp in S1/6A) (protein)
chain: B1 chain with D1M, D2V, K9R, D11P, P14D
B9: S1 mutant 7-2 (Arg9->Asn, Ser12->Gly in S1/6A) (protein)
chain: B1 chain with D1M, D2V, K9N, S12G
B10: S1 mutant 5-1 (Tyr8->Phe in S1/6A) (protein)
chain: B1 chain with D1M, D2V, Y8F, K9R

Positions count from the first letter of the chain named.

For this data set, the target named is purified bovine transducin (alpha subunit is the ADP-ribose acceptor), P04695.
For B1, the transferase activity entry was “transferase activity was reduced by a factor of approximately 1000”.
In turn, B2 gave an ADP-ribosyltransferase activity (cpm) of 754 cpm.
Protein B3 came in with an ADP-ribosyltransferase activity (cpm) of 13500 ± 1600 cpm.
B4 came in with an ADP-ribosyltransferase activity (cpm) of 926 cpm.
B5: the ADP-ribosyltransferase activity (cpm) came out at 7390 ± 1370 cpm.
The same measure, in the same setting: the same measure for B6: 23400 ± 950 cpm.
B7 returned an ADP-ribosyltransferase activity (cpm) of 22300 ± 2100 cpm.
Regarding B8, the ADP-ribosyltransferase activity (cpm) came to 764 cpm.
Regarding B9, the ADP-ribosyltransferase activity (cpm) stood at 753 cpm.
Still for that read-out and setting: then B10, with 26400 ± 1320 cpm.

The values above are taken from patent US7232671.
